Assay results from PMC12474298 (Viruses, 2025).
Where no end group is shown, it is not given here.

Target: mouse importin α2 lacking the importin-β binding domain (mouse IMPα2ΔIBB) (mouse, UniProt P52293 70-529)
Assay: fluorescence polarisation
Details: both partners purified

B1: HaHV1 UL36h NLS peptide (residues 1491-1500), FITC/Ahx-labelled (peptide)
peptide: ETKKRRRILE
modifications: not fully specified (N-terminus); also: FITC/Ahx-labelled, position not given here
notes: also called HaHV1 NLS; HaHV1-NLS
How did the Kd turn out when B1 was run?
The Kd was 0.609 µM.
